Laboratory results: US20260001953A1 (TWIST BIOSCIENCE, published 2026)
Positions count from the first letter of the chain named.

T1: mouse CD117 (mouse, UniProt P05532)
T1 construct: antigen of the Carterra SPR kinetics; also called murine CD117
T1 sequence (receptor, looked up): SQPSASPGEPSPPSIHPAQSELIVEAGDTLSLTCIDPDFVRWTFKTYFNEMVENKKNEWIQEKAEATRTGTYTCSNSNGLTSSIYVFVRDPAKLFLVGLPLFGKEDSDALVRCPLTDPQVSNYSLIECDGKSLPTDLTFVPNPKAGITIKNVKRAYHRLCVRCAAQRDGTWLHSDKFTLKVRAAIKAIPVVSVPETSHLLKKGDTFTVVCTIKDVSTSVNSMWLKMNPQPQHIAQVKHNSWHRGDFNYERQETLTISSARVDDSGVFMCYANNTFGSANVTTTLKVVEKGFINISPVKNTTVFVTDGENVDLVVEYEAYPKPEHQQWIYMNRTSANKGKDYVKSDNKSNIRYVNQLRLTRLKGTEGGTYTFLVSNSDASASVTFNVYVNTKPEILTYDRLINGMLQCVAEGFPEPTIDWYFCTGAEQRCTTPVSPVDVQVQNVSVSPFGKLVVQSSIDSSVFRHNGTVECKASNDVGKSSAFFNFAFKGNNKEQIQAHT

T2: SIGLEC-5 (limits assumed)
T2 construct: also called OB-BP-2
T2 receptor: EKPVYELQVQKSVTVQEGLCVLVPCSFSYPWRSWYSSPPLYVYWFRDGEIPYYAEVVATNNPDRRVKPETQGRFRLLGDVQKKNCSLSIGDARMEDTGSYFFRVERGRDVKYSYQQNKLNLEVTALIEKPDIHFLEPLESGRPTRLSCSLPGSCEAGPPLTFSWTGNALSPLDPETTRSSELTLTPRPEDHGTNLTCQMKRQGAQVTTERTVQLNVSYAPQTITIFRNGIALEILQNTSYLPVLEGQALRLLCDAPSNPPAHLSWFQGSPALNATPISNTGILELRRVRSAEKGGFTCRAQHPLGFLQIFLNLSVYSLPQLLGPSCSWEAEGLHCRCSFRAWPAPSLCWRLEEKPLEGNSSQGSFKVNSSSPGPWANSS

B1: SIGLEC-8-11 (antibody, human IgG1, kappa, V domains shown)
VH: EVQLLESGGGLVQPGGSLRLSCAASGLTFSNYDMSWVRQAPGKGLEWVSAISTSGGGSGGSTYYADSVKGRFTISRDNSKNTLYLQMNSLRAEDTAVYYCAREANNYYYGMDVWGQGTLVTVSS
VL: DIQMTQSPSSLSASVGDRVTITCRASQTISSYLHWYQQKPGKAPKLLIYAASSLHTGVPSRFSGSGSGTDFTLTISSLQPEDFATYYCQQSSSTPLTFGGGTKVEIKR
notes: tested as expressed and purified mAb
B2: SIGLEC-8-44 (antibody, human IgG1, kappa, V domains shown)
VH: EVQLLESGGGLVQPGGSLRLSCAASGFTISSSAMTWVRQAPGKGLEWVSSISGGGGTTYYADSVKGRFTISRDNSKNTLYLQMNSLRAEDTAVYYCAREGAGYYYGMDVWGQGTLVTVSS
VL: B1 VL with T28S, S30G, S31N, H34N, S53R, H55Q, T56G, S92Y, T97S
notes: as for B1
B3: SIGLEC-8-58 (antibody, human IgG1, kappa, V domains shown)
VH: EVQLLESGGGLVQPGGSLRLSCAASGFTFRTSAMSWVRQAPGKGLEWVSSVSGSGSSTYYADSVKGRFTISRDNSKNTLYLQMNSLRAEDTAVYYCAKEGSYYYYGMDVWGQGTLVTVSS
VL: B1 VL with S30G, S31R, H34N, A50G, H55Y, T56S, S92Y, S93K, L96V
notes: as for B1
B4: SIGLEC-8-17 (antibody, human IgG1, kappa, V domains shown)
VH: EVQLLESGGGLVQPGGSLRLSCAASGFPFSNYAMGWVRQAPGKGLEWVSGISASGSSTYYADSVKGRFTISRDNSKNTLYLQMNSLRAEDTAVYYCAREDSGKYLSLDYWGQGTLVTVSS
VL: B1 VL with A25T, T28S, Y32H, H34N, H55Q, T56P, S92Y, S93N, L96P
notes: as for B1
B5: SIGLEC-8-34 (antibody, human IgG1, kappa, V domains shown)
VH: B3 VH with R30S, T31R, S32H, S35G, V51I, S56Y, K98R, G100N, S101G, Y102Q
VL: B1 VL with S30T, S31T, H34N, S53H, H55Q, S92Y, T97S
notes: as for B1
B6: SIGLEC-8-48 (antibody, human IgG1, kappa, V domains shown)
VH: EVQLLESGGGLVQPGGSLRLSCAASGFNFRSYAMSWVRQAPGKGLEWVSGISGSGGSAYYADSVKGRFTISRDNSKNTLYLQMNSLRAEDTAVYYCAREGYNWAVDYWGQGTLVTVSS
VL: DIQMTQSPSSLSASVGDRVTITCRASQSISGFLNWYQQKPGKAPKLLIYGASILQSGVPSRFSGSGSGTDFTLTISSLQPEDFATYYCQQTYSTPRSFGGGTKVEIKR
notes: as for B1
B7: SIGLEC-8-57 (antibody, human IgG1, kappa, V domains shown)
VH: EVQLLESGGGLVQPGGSLRLSCAASGFAFSRYAMSWVRQAPGKGLEWVSGISGSGGRTHYADSVKGRFTISRDNSKNTLYLQMNSLRAEDTAVYYCARQSRGGSLGMDVWGQGTLVTVSS
VL: B6 VL with F32Y, A51S, I53T, T91S, T94P, R96W, S97T
notes: as for B1
B8: CD117-1 (antibody, human IgG1, kappa, V domains shown)
VH: EVQLLESGGGLVQPGGSLRLSCAASGFTLTSYAMSWVRQAPGKGLEWVSTISGSGGYTYYADSVKGRFTISRDNSKNTLYLQMNSLRAEDTAVYYCARDSGYDRGLDYWGQGTLVTVSS
VL: DIQMTQSPSSLSASVGDRVTITCRASQSVRTYLNWYQQKPGKAPKLLIYDASTLQSGVPSRFSGSGSGTDFTLTISSLQPEDFATYYCQQSYSSSITFGGGTKVEIKR
notes: detected with anti-human IgG in FACS
B9: CD117-7 (antibody, human IgG1, kappa, V domains shown)
VH: EVQLLESGGGLVQPGGSLRLSCAASGFTFSDYAMGWVRQAPGKGLEWVSGIGGSGGSAYYADSVKGRFTISRDNSKNTLYLQMNSLRAEDTAVYYCARGFDSTDGVDYWGQGTLVTVSS
VL: B6 VL with S30G, G31N, F32Y, G50A, I53D, S56T, T91G, R96Y, S97T
notes: as for B8
B10: CD117-6 (antibody, human IgG1, kappa, V domains shown)
VH: EVQLLESGGGLVQPGGSLRLSCAASGFTFSAYALTWVRQAPGKGLEWVSAISSSGGSTFYADSVKGRFTISRDNSKNTLYLQMNSLRAEDTAVYYCARVSRGYPRRSDSWGQGTLVTVSS
VL: B6 VL with I21T, S28G, G31T, F32Y, I53R, S56G, T91G, T94F, R96W, S97T
notes: as for B8

Molecular target: T3, Sialic acid-binding immunoglobulin-like lectin 8 (SIGLEC-8), antigen of the Carterra SPR studies (UniProt Q9NYZ4 17-363, limits assumed)
T3 sequence (Q9NYZ4 17-363 limits assumed): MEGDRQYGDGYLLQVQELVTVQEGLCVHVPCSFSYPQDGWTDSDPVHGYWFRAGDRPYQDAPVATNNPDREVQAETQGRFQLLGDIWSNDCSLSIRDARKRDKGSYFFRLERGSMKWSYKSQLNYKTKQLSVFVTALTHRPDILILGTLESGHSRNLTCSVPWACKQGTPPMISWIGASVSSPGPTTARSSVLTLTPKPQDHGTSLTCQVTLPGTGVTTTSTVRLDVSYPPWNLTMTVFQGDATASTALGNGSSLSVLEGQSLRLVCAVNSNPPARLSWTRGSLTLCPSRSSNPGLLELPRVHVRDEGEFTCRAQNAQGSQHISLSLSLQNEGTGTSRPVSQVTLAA
Assay: Carterra SPR
In short: (§1)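 Antibodies came from synthetic antibody libraries, panned over four rounds with a bead-based strategy and screened by clonal ELISA. Chosen clones were expressed and purified before testing. Their binding kinetics to SIGLEC-8 were then measured by surface plasmon resonance on a Carterra instrument, giving rate constants and dissociation constants.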

Kd | Binder
0.217 nM | B1
0.517 nM | B2
0.97 nM | B3
8.89 nM | B4
9.23 nM | B5
336 nM | B6
990 nM | B7

Molecular target: T3, Sialic acid-binding immunoglobulin-like …
Assay: Carterra SPR kinetics, summary table
In short: as §1

koff | kon | Binder
7.23e-05 s⁻¹ | 334000 M⁻¹ s⁻¹ | B1
0.000138 s⁻¹ | 267000 M⁻¹ s⁻¹ | B2
0.000127 s⁻¹ | 131000 M⁻¹ s⁻¹ | B3

Molecular target: T1, mouse CD117
Assay: Carterra SPR, mouse CD117
Experimental: (§2) To further evaluate the antibodies discovered during the screens, 21 clones were selected for detailed characterization and were analyzed for target binding kinetics by a Carterra SPR instrument. The binding kinetics of the anti-CD117 antibodies for human CD117, cynomolgus monkey CD117, and murine CD117 are shown in FIG. 29A-29B.

binding result | Binder
no binding | B8
no binding | B9

Molecular target: T4, cyno CD117 (Macaca fascicularis, UniProt A0A7N9CP24)
T4 construct: antigen of the Carterra SPR kinetics; also called cynomolgus monkey CD117
T4 sequence (A0A7N9CP24 entry or part of it): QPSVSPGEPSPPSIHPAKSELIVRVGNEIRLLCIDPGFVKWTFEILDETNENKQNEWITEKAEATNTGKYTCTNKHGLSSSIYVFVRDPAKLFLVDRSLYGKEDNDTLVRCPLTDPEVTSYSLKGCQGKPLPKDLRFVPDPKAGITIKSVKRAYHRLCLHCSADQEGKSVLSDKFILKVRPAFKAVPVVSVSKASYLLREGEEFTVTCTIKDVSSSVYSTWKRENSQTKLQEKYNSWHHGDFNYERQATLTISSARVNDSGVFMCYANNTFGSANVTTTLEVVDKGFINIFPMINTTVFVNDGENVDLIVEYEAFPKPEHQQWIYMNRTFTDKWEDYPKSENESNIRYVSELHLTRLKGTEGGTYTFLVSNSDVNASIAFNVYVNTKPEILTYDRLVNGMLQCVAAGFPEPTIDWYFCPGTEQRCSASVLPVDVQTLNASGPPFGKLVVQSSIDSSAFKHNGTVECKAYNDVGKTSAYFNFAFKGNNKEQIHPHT
Assay: Carterra SPR, cyno CD117
Experimental: as §2

Kd | koff | kon | Binder
508 nM | 0.16 s⁻¹ | 315000 M⁻¹ s⁻¹ | B8
14.2 nM | 0.0159 s⁻¹ | 1.12e+06 M⁻¹ s⁻¹ | B9

Molecular target: CD117-GFP transiently overexpressed in HEK293T cells (UniProt P10721 26-976)
Assay: cell-based or functional assay

IC50, inhibition of the SCF-stimulated SRF reporter signal (FFLuc/RLuc); same row prints log(IC50) -9.366 and Span -0.2174 | IC50, inhibition of the SCF-stimulated SRF reporter signal (FFLuc/RLuc); same row prints log(IC50) -8.147 and Span -0.2026 | IC50, inhibition of the SCF-stimulated SRF reporter signal (FFLuc/RLuc); same row prints log(IC50) -9.451 and Span -0.1049 | Binder
4.31e-10 M | – | – | B8
– | 7.13e-09 M | – | B10
– | – | 3.54e-10 M | B9

Molecular target: T5, Cluster of differentiation 117 (CD117), antigen of epitope binning and ELISA (UniProt P10721 26-520, limits assumed)
T5 construct: also called tyrosine-protein kinase KIT; mast/stem cell growth factor receptor (SCFR)
T5 sequence (P10721 26-520 limits assumed): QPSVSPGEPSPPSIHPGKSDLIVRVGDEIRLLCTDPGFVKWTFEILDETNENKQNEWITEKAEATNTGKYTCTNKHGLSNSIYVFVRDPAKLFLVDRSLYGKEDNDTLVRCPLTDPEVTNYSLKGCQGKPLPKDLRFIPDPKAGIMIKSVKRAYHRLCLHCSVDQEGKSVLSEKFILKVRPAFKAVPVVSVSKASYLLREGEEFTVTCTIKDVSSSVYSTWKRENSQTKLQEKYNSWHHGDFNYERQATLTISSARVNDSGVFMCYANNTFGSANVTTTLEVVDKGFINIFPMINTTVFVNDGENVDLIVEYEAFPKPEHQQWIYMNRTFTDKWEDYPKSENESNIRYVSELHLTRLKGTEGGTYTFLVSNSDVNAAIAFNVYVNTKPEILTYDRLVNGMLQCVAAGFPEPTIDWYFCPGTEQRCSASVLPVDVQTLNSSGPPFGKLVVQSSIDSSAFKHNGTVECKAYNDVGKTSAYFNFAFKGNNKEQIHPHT
Assay: Carterra SPR, human CD117
Experimental: as §2

Kd | koff | kon | Binder
189 nM | 0.1 s⁻¹ | 530000 M⁻¹ s⁻¹ | B8
22 nM | 0.0194 s⁻¹ | 882000 M⁻¹ s⁻¹ | B9

Molecular target: T6, CD117 transiently expressed on Expi293 cells (UniProt P10721 26-976, limits assumed)
T6 construct: whole, on cells; Two cassettes are described (P2A mVenus and direct mVenus fusion); also called CD117 transient cells; the transient cell line
T6 sequence (P10721 26-976 limits assumed): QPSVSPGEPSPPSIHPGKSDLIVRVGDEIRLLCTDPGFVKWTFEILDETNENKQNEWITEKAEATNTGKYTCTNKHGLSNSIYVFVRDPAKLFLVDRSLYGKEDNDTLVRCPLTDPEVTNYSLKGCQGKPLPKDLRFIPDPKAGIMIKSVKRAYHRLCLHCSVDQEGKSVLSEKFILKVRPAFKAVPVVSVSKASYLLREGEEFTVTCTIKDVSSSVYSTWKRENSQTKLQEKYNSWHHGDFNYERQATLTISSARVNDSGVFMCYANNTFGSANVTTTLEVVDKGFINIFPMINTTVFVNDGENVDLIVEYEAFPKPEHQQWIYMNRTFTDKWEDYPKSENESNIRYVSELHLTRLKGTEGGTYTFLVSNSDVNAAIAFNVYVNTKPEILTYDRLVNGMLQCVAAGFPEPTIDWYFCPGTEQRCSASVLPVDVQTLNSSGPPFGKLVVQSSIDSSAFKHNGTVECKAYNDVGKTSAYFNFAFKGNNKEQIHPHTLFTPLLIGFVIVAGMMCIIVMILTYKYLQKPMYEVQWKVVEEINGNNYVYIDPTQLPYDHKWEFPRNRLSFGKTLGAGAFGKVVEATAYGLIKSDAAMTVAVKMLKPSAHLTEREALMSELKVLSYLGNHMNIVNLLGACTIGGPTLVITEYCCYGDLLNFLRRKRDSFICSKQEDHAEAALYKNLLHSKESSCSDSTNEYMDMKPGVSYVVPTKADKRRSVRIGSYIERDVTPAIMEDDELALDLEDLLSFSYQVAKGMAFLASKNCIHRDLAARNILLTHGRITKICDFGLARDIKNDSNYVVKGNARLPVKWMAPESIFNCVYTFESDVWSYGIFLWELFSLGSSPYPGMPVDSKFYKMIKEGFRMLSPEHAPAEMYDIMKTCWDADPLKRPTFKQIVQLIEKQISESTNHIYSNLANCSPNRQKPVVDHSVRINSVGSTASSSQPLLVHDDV
Assay: FACS cell binding, Expi293 transiently expressing CD117

EC50 | Binder
23.8 nM | B8
0.116 nM | B10
4.01 nM | B9

Molecular target: T7, SIGLEC-8 transiently expressed on cells (UniProt Q9NYZ4 17-499, limits assumed)
T7 construct: whole, on cells; Two cassettes are described (P2A mVenus and direct mVenus fusion); also called the transient line; pTT5-SIGLEC-8 P2A mVenus
T7 sequence (Q9NYZ4 17-499 limits assumed): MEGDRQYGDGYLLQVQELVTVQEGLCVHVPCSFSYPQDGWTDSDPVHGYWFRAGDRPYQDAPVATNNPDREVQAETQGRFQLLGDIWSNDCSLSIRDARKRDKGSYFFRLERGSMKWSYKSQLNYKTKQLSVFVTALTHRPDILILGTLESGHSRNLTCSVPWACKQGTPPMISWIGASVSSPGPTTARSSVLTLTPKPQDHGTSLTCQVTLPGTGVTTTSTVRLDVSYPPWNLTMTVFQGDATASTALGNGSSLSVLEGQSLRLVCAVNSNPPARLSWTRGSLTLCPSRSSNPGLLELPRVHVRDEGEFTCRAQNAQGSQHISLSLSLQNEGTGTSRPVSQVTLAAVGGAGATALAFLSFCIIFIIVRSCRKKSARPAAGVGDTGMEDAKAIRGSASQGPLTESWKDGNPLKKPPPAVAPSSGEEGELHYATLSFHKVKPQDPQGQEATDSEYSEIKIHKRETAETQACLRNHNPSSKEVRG
Assay: cell binding titration, transient SIGLEC-8 line

EC50 | Binder
2.19 nM | B1
1.07 nM | B2
0.914 nM | B3
1.25 nM | B4
1.95 nM | B5
12.3 nM | B6
1.73 nM | B7

Molecular target: T6, CD117 transiently expressed on Expi293 …
Assay: FACS, MFI expressing / parental cells

MFI Ratio | Binder
26.6 | B8
21.9 | B9

Molecular target: T8, SIGLEC-3
T8 construct: also called CD33
T8 sequence (receptor, as listed by the source limits assumed): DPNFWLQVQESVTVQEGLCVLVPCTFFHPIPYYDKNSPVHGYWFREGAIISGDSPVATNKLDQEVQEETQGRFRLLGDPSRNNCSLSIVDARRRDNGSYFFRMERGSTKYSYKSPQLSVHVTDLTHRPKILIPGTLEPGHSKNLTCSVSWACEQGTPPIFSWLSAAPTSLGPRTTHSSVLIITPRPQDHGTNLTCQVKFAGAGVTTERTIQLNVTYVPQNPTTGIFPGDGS
Assay: SPR cross-reactivity table
In short: (§3)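 Antibodies raised against SIGLEC-8 were tested for cross-reactivity with related SIGLEC proteins by surface plasmon resonance on a Carterra instrument. The antibodies came from synthetic libraries panned over four rounds with a bead-based strategy and screened by clonal ELISA. Selected clones were expressed and purified before testing. Dissociation constants or binding results are reported for each protein tested.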

binding result | Kd | Binder
no binding | – | B1
no binding | – | B2
no binding | – | B3
no binding | – | B4
– | 62.2 nM | B5
no binding | – | B6
no binding | – | B7

Molecular target: T9, SIGLEC-6
T9 construct: also called OB-BP-1
T9 sequence (receptor, as listed by the source limits assumed): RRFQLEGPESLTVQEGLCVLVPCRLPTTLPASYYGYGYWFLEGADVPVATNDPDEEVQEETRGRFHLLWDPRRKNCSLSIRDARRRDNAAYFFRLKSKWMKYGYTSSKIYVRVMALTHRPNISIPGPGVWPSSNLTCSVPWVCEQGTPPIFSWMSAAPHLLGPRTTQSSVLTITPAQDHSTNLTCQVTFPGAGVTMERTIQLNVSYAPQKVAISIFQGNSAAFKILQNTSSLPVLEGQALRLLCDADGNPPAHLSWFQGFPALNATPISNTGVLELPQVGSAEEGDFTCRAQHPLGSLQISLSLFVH
Assay: SPR cross-reactivity table
In short: as §3

binding result | Kd | Binder
no binding | – | B1
– | 35.2 nM | B2
no binding | – | B3
no binding | – | B4
– | 6.9 nM | B5
no binding | – | B6
– | 9.6 nM | B7

Molecular target: T2, SIGLEC-5
Assay: SPR cross-reactivity table
In short: as §3

Kd | binding result | Binder
29.7 nM | – | B1
6.7 nM | – | B2
169 nM | – | B3
– | no binding | B4
5.5 nM | – | B5
– | no binding | B6
28.3 nM | – | B7

Molecular target: T10, SIGLEC-2
T10 construct: also called CD22
T10 sequence (chain, as listed by the source limits assumed): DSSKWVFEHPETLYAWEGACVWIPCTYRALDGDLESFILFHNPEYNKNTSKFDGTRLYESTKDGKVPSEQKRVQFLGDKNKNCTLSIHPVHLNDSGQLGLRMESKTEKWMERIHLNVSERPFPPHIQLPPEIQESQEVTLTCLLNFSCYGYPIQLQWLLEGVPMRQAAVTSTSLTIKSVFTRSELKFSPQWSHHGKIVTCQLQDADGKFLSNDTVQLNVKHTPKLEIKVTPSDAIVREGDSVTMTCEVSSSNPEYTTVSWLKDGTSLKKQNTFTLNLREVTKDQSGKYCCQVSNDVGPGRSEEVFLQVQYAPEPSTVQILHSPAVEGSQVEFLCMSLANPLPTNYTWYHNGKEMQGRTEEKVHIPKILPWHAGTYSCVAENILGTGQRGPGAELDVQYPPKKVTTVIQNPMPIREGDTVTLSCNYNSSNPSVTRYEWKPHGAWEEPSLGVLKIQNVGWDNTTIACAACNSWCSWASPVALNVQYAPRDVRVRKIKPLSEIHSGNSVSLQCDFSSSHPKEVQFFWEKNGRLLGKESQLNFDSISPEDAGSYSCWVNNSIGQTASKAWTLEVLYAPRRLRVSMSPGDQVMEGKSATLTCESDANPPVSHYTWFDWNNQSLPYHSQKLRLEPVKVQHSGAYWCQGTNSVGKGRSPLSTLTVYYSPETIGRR
Assay: SPR cross-reactivity table
In short: as §3

binding result | Kd | Binder
no binding | – | B1
no binding | – | B2
no binding | – | B3
– | 836 nM | B4
– | 208 nM | B5
– | 629 nM | B6
no binding | – | B7

Molecular target: T11, SIGLEC-7
T11 construct: also called p75/AIRM1
T11 sequence (receptor, as listed by the source limits assumed): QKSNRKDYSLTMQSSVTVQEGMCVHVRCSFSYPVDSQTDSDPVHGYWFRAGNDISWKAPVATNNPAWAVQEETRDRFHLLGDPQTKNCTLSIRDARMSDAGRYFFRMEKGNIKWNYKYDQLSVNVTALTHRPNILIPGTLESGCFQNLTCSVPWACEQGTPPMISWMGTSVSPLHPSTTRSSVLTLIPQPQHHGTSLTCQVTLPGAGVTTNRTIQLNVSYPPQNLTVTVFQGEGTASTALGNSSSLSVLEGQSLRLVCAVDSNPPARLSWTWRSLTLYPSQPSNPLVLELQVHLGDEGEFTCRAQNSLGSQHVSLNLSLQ
Assay: SPR cross-reactivity table
In short: as §3

binding result | Binder
no binding | B1
no binding | B2
no binding | B3
no binding | B4
no binding | B5
no binding | B6
no binding | B7
